US20260209346A1 (LTZ THERAPEUTICS, published 2026)

T1: human CD79b recombinant protein (human, UniProt P40259 29-159)
T1 construct: also called human CD79b ECD antigen; recombinant human CD79b ECD
T1 sequence: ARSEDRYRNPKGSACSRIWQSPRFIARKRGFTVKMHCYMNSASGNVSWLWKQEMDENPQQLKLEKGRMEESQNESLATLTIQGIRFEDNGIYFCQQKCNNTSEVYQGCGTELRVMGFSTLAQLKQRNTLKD

T2: CD79b endogenously expressed on the cell surface (malignant B cell lines, normal B cells in PBMC, CLL … (human, UniProt P40259 29-229))
T2 construct: whole, on cells; On cells CD79b stands in the B-cell receptor complex with CD79a and surface Ig; also called cell surface CD79b; endogenous CD79b
T2 sequence (looked up): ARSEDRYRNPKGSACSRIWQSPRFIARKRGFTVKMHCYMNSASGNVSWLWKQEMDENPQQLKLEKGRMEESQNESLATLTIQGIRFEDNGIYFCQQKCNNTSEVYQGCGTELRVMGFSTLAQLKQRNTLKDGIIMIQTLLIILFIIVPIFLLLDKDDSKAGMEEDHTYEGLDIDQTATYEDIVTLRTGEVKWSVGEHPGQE

T3: cynomolgus CD79b recombinant protein (cynomolgus)
T3 chain: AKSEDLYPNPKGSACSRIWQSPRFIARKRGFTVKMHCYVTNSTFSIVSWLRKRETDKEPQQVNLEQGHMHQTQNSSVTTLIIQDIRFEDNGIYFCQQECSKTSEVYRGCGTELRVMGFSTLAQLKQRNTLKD


Legend:
[1] = molecular target: T1, human CD79b recombinant protein; test: ELISA on recombinant human CD79b ECD; A 450nm
[2] = molecular target: T2, CD79b endogenously expressed on the …; test: flow cytometry on a cell line expressing endogenous CD79b (not named on the sheet or in the text); MFI (PE)
[3] = molecular target: T1, human CD79b recombinant protein; test: ELISA, coated human CD79b recombinant protein
Procedure: (§1) Binding affinities of anti-CD79b antibodies to human and cynomolgus CD79b recombinant proteins were tested by ELISA. 1 ug/ml (in PBS buffer) of human or cynomolgus CD79b recombinant proteins were coated on an ELISA plate overnight. ELISA plates were washed and blocked with blocking buffer (PBS+1% BSA) followed by incubation with serially diluted anti-CD79b primary antibodies. Anti-CD79b antibody binding was quantified using an anti-human IgG HRP secondary antibody (Biolegend Catalog #410902) and HRP substrate.

[4] = molecular target: T3, cynomolgus CD79b recombinant protein; test: ELISA, coated cynomolgus CD79b recombinant protein
Procedure: as §1

[5] = molecular target: T1, human CD79b recombinant protein; test: BLI, antibody captured on anti-human IgG Fc probes, human CD79b in solution, 1:1 model
Procedure: (§2) Binding affinities of anti-CD79b antibodies to human CD79b recombinant proteins were tested by BLI. 10 ug/ml of anti-CD79b antibodies were captured by anti-human IgG Fc probes (Gator Bio Catalog #160024). […] Absolute kD was determined by applying a 1:1 binding model (Global Rmax unlinked).

[6] = molecular target: T2, CD79b endogenously expressed on the …; test: flow cytometry on BJAB cells; anti-human IgG1-PE; MFI (PE); table under the graph
Procedure: (§3) The binding affinities of anti-CD79b antibodies to malignant B cell lines were tested. […] The cells were then incubated with 100 μl anti-human IgG1-PE (Invitrogen, cat: 12-4998-82), 1:1000 dilution, for 30 min on ice, washed with 200 ul PBS for three times before flow cytometry analysis.

[7] = molecular target: T2, CD79b endogenously expressed on the …; test: flow cytometry on Ramos cells; anti-human IgG1-PE; MFI (PE); table under the graph
Procedure: as §3

[8] = molecular target: T2, CD79b endogenously expressed on the …; test: flow cytometry on Daudi cells; anti-human IgG1-PE; MFI (PE); table under the graph
Procedure: as §3

[9] = molecular target: T2, CD79b endogenously expressed on the …; test: flow cytometry on Nalm-6 cells; anti-human IgG1-PE; MFI (PE); table under the graph
Procedure: as §3

[10] = molecular target: T2, CD79b endogenously expressed on the …; test: flow cytometry on SU-DHL-4 cells; anti-human IgG1-PE; MFI (PE); table under the graph
Procedure: as §3

[11] = molecular target: T2, CD79b endogenously expressed on the …; test: flow cytometry on PBMC of CLL Donor 0255 (B lymphocytes); PE goat anti-human IgG Fc; MFI PE
Procedure: To determine the binding affinities of the anti-CD79b antibodies to cell surface CD79b on Chronic Lymphocytic Leukemia (CLL) patient's B lymphocytes, a cell-based binding assay was conducted. […] CLL patient PBMCs were purchased from the company Bioscience. […] Specifically, 2.5×10⁴ PBMC cells in 50 μl FACS buffer (1×PBS+2% BSA+2 mM EDTA) were seeded in each well of a V bottom 96-well plate. […] The mixture was incubated on ice for 30 minutes, and then washed twice with FACS buffer. The cells were re-suspended in 100 μl FACS buffer containing PE conjugated goat anti-human IgG Fc (1:1000) and anti-human CD19 (BV421), and incubated for 30 minutes on ice in darkness. After washing twice with FACS buffer, the cells were re-suspended in 100 μl of FACS buffer and analyzed with a Cytek cytometer.

[12] = molecular target: T2, CD79b endogenously expressed on the …; test: flow cytometry on PBMC of Donor 889, B cells marked with CD19-BV421; anti-human IgG1-PE; MFI (PE); table under the graph
Procedure: (§4) The binding affinities of anti-CD79b antibodies to endogenous B cells were tested. […] The cells were then incubated with […] mixture of anti-human IgG1-PE (Invitrogen, Cat #: 12-4998-82), 1:1000 dilution; CD19-BV421 (Biolegend, Cat #:302230, 1:400 dilution) for 30 min on ice, and washed with 200 ul PBS for three times before flow cytometry analysis.

[13] = molecular target: T2, CD79b endogenously expressed on the …; test: flow cytometry on PBMC of Donor 356, B cells marked with CD19-BV421; anti-human IgG1-PE; MFI (PE); table under the graph
Procedure: as §4

[14] = molecular target: T2, CD79b endogenously expressed on the …; test: flow cytometry on PBMC of Donor 2890, B cells marked with CD19-BV421; anti-human IgG1-PE; MFI (PE); table under the graph
Procedure: as §4

[15] = molecular target: T2, CD79b endogenously expressed on the …; test: flow cytometry on PBMC of Donor 2235, B cells marked with CD19-BV421; anti-human IgG1-PE; MFI (PE); table under the graph
Procedure: as §4

[16] = molecular target: T1, human CD79b recombinant protein; test: BLI; antibody at 10 ug/ml captured on anti-human IgG Fc probes, hCD79b in solution; same value printed in the rows for 18.3 and 9.14 nM hCD79b
Procedure: as §2

| Binder | EC50 (read off the curve) [1] [nM] | EC50 (read off the curve) [2] [nM] | IC50 [3] [nM] | IC50 [4] [nM] | Kd [5] [nM] | EC50 [6] [nM] | EC50 [7] [nM] | EC50 [8] [nM] | EC50 [9] [nM] | EC50 [10] [nM] | EC50 (read off the curve) [11] [nM] | EC50 [12] [nM] | EC50 [13] [nM] | EC50 [14] [nM] | EC50 [15] [nM] | koff [16] [s⁻¹] | kon [16] [M⁻¹ s⁻¹] |
| --- | --- | --- | --- | --- | --- | --- | --- | --- | --- | --- | --- | --- | --- | --- | --- | --- | --- |
| hu44G2 (antibody, V domains shown, Humanized antibody; also called humanized 44G2) VH: EQQLVETGGGLIQPGGSLRLSCAASGFTINIDYWISWVRQAPGKGLEWIGIIDPGDGTTYFAIWVSGRFTISFDNSKNTVYLQMNSLRAEDTAVYFCVREFSASAYQYDLWGPGTLVTVSS VL: ELVMTQSPATLSVSPGERATLSCRASEDIENYLAWYQQKPGQPPRLLIYRASTLSSGVPARFSGSGSGTEFTLTISSLQSEDFAVYYCQQGYRNSNVDNPFGGGTKVEIK | ~0.2 | ~0.2 | – | – | – | – | – | – | – | – | – | – | – | – | – | – | – |
| hu57B9 (antibody, V domains shown, Humanized antibody; also called humanized 57B9) VH: EQQLVETGGGLIQPGGSLRLSCAASEFTINIDYWISWVRQAPGKGLEWIGIIDPGDGTTYFAIWVSGRFTISRDTSKNTVYLQMNSLRAEDTAVYFCAREVSASAYQYDLWGPGTLVTVSS VL: ELVMTQSPATLSVSPGERATLSCQASEDIESYLAWYQQKPGQPPRLLIYFTSNLASGVPARFSGSGSGTEYTLTISSLQSEDFAVYYCQQGYRNSDVHNPFGGGTKVEIK | ~0.08 | ~0.2 | – | – | – | – | – | – | – | – | – | – | – | – | – | – | – |
| hu48H10 (antibody, V domains shown, Humanized antibody; also called humanized 48H10) VH: EQQLVETGGGLIQPGGSLRLSCAASGFTINIDYWISWVRQAPGKGLEWIGIIDPGDGTTYFAIWVSGRFTISTDNSKNTVYLQMNSLRAEDTAVYFCAREFSASAYQYDLWGPGTLVTVSS VL: ELVMTQSPATLSVSPGERATLSCQASEDIESYLTWYQQKPGQPPRLLMYRASTLSSGVPARFSASGSGTEFTLTISSLQSEDFAVYYCQQGYRNKDVDNPFGGGTKVEIK | ~0.1 | ~0.5 | – | – | – | – | – | – | – | – | – | – | – | – | – | – | – |
| ch48H10 (antibody, human IgG1, kappa, V domains shown, Rabbit/human chimeric IgG1 kappa; also called chimeric 48H10) VH: QSVKETGGGLVQPGGSLTLSCKASGFTINIDYWISWVRQAPGKGLEWIGIIDPGDGTTYFAIWVSGRFTISTDNAQNTVDLQMNSLTAADTATYFCAREFSASAYQYDLWGPGTLVTVSS VL: ALVMTQTPSSVSAAVGGTVSINCQASEDIESYLTWYQQKPGQPPKLLMYRASTLSSGVSSRFSASGSGTEFTLTISGVQPDDAATYYCQQGYRNKDVDNPFGGGTEVVVKR | ~0.3 | ~0.4 | 0.6 | 65.3 | 0.0314 | 0.98 | 1.32 | 1.38 | 2.69 | 0.98 | ~0.9 | 0.154 | 0.446 | 1.17 | 0.272 | 1.09e-05 | 346000 |
| hu23D8 (antibody, V domains shown, Humanized antibody; also called humanized 23D8) VH: EQQLLESGGGLVQPGGSLRLSCAVSGLSLSSNAINWVRQAPGKGLEWIGMIYSGGRIEYASWAKGRFTISKDSSKNTVYLQMNSLRAEDTAVYFCAKGMSPSAHSSDIWGPGTLVTVSS VL: EGVMTQSPATLSVSPGERATLSCQASQSISDNLSWYQQKPGQPPRLLIYDASDLASGVPARFSGSGSGTEFTLTISSLQSEDFAVYYCQQDWISSNVDNTFGGGTKVEIK | ~0.1 | ~0.5 | – | – | – | – | – | – | – | – | – | – | – | – | – | – | – |
| ch57B9 (antibody, human IgG1, kappa, V domains shown, Rabbit/human chimeric IgG1 kappa; also called chimeric 57B9) VH: QSVRETGGGLVQPGGSLTLSCEASEFTINIDYWISWVRQAPGKGLEWIGIIDPGDGTTYFAIWVSGRFTITRNTNLNTVDLKMTSLTEADTATYFCAREVSASAYQYDLWGPGTLVTVSS VL: ALVMTQTPSSVSADVGGTVSINCQASEDIESYLAWYQQKPGQPPKLLIYFTSNLASGVPSRFKGSGSGTEYTLTISGVQPDDAATYYCQQGYRNSDVHNPFGGGTEVVVKR | ~0.1 | ~0.3 | 0.42 | 186 | 0.239 | 0.91 | 1.3 | 1.22 | 1.73 | 0.89 | ~0.9 | – | – | – | – | 8.8e-05 | 368000 |
| ch22D10 (antibody, human IgG1, kappa, V domains shown, Rabbit/human chimeric IgG1 kappa; also called chimeric 22D10) VH: QSVEESGGRLVTPGTPLTLTCTASGFTINDYHMNWVRQAPGKGLEWIGIISSNGDTYYASWAKGRFTISRTSTTVDLKMTSLTTEDTATYFCARDDRDRSYAFDPWGPGTLVTVSS VL: ALVMTQTPSSVSAAVGGTVTINCRASEDIERYLAWYQQKPGQRPKLLIYGASTLASGVPSRFKGSGSGTEYTLTISGVQPDDAATYYCHQGDSSRNVVNVFGGGTEVVVKR | – | – | 0.22 | – | 0.313 | 0.34 | 0.36 | 0.24 | 0.43 | 0.4 | – | – | – | – | – | 0.000106 | 338000 |
